The values below come from article PMC9582194, “The effect of helix-inducing constraints and downsizing upon a transcription block survival-derived functional cJun antagonist” (Cell Reports. Physical Science, 2022).

The nature of data set [1]: Peptide fraction helicity by CD at 222 nm, peptide-only samples. Conditions: CD signal at 222 nm of peptide-only samples; pH 7.4 phosphate/KF/TCEP buffer; duplicate experiments. The data set is classed as physicochemical. As for the experimental part:
(§1) The precise nature of the interaction between the cJun DBD and the rationally designed acidic domain of HW1 is unknown. HW1 was, therefore, iteratively truncated from the N terminus (HW2–6) to investigate the effect on cJun binding and cJun/TRE DNA antagonism (Table 1). Peptide fraction helicity (fH) was determined by quantifying the circular dichroism (CD) signal at 222 nm of peptide-only samples (Figure S1). Thermal denaturation experiments were then used to determine the melting temperature (Tm) of peptide-cJun heterodimers, which serves as an approximate measure of target engagement. CD was also used to investigate the functional activity of peptides in antagonizing the cJun/TRE DNA interaction. […] This provides a clear and direct measurement of the proportion of DNA bound to cJun. As antagonist peptide concentration was increased, the peak shifted to overlay with that of free TRE-DNA (Figure S4). For each peptide, the data were fit to a Hill equation to determine half-maximal inhibitory concentration (IC50) values, specific to these assay conditions, providing a clear comparative measure of antagonism. The same 60 amino acid cJun construct, encompassing the entire bZIP domain, was used for all experiments regardless of antagonist peptide length.

Data set [2] concerns the target T1, cJun (Homo sapiens, UniProt P05412).
T1 construct: The same 60 amino acid cJun construct, encompassing the entire bZIP domain, was used for all experiments
The data set can be described thus: CD thermal denaturation of peptide-cJun heterodimers (Tm). It is filed as binding. Conditions: CD ellipticity at 222 nm, 1-90 °C; peptide (5 μM)/cJun (5 μM); 20 mM potassium phosphate, 150 mM potassium fluoride, 2 mM TCEP pH 7.4; two-state fit; duplicate experiments, ± one SD. As for the experimental part:
as §1
Figure 2 Iterative N-terminal truncation of HingeW reduces cJun binding and antagonism (A) Thermal denaturation profiles for iteratively truncated peptide (5 μM)/cJun (5 μM) heterodimer samples. (B) CD antagonism data produced by monitoring the shift in a DNA specific peak to provide a direct readout of cJun-DNA binding. Peptides are added at the indicated concentrations to a pre-incubated mixture of cJun (20 μM) and TRE DNA (5 μM). Data points were averaged from triplicate experiments, and error bars indicate one SD. The data were fitted to a Hill equation to determine IC50 values. Some higher peptide concentration data points for HW6 and HW9 are not shown in this plot for clarity.

For data set [3], the target named is T1, cJun. The data set can be described thus: Isothermal titration calorimetry (ITC) with cJun. It is filed as binding. Conditions: 25 °C, pH 7.4, one-site model, average of two experiments ± one SD. The text has this:
A selection of peptides from this work were investigated by isothermal titration calorimetry (ITC) to quantify the thermodynamic parameters of their interaction with target cJun (Figure 4 and S6; Table 2). The determined equilibrium binding constant (KD) values follow from the CD data above and can be rationalized in terms of the truncation or lactamization they represent. […] All interactions investigated were dominated by the enthalpic component, with a smaller unfavorable entropic contribution, other than for HW8/cJun, which is the weakest interaction. The unfavorable entropic component was largest for the HW30/cJun interaction and smallest for HW23/cJun. This indicates the introduction of lactams produces a more unfavorable entropic component, perhaps a surprising result as helix-inducing lactamization is typically considered to increase affinity through entropic pre-organization. However, the larger increase in the favorable enthalpic component produces an increase in binding affinity due to lactamization. This is likely to be caused by a combination of enhanced intermolecular contacts and ordering that are opposed by unfavorable desolvation effects.
Two-μL injections of antagonist peptide at 25–200 μM were injected into the cell containing cJun at 2.5–20 μM at 25°C. Microcal Control and Analysis software were used to record and analyze the heat change upon addition and fit the data to a one-site binding model to extract the enthalpy change of binding (ΔH) and the KD, from which the free energy change of binding (ΔG) and the entropy change of binding (ΔS) were calculated.[40] Control experiments involved the injection of the antagonist peptide sample into the cell containing ITC buffer alone to determine the heat of dilution, which was subtracted. Thermodynamic parameters are presented as an average of two independent experiments with errors given as one SD.

The target of data set [4] is T2, cJun (60 amino acid construct encompassing the entire bZIP domain) (UniProt P05412 252-315). In words: ITC; antagonist peptide at 25–200 μM injected into cJun at 2.5–20 μM in the cell, 25°C; 20 mM potassium phosphate, 150 mM potassium fluoride, 2 mM TCEP, pH 7.4; one-site binding model; two independent experiments. Conditions: both partners purified.
For data set [5], the target named is T2, cJun (60 amino acid construct …). In words: cell-based or functional assay.
For data set [6] the target is unchanged. The data set can be described thus: CD thermal denaturation; peptide (5 μM) with cJun (5 μM); ellipticity at 222 nm, 1°C to 90°C; 20 mM potassium phosphate, 150 mM potassium fluoride, 2 mM TCEP, pH 7.4; two-state fit gives the Tm of the peptide-cJun heterodimer; duplicate experiments. Conditions: both partners purified.

Positions of bridges follow the written chain, without caps; N, C: chain ends.

T2 sequence (P05412 252-315): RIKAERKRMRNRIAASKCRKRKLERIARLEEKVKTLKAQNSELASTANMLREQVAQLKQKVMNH
T1 sequence (P05412 252-315 limits assumed): as the sequence (P05412 252-315) above

Turning to “Ac-EAEELVVEEDVLEEEIEQLEERNYALRKEIEDLQKQLEKL-NH2 [HW4]”, the “fH, peptide fraction helicity” value in data set [1] was determined as 45.5%. Further, the “Tm of peptide-cJun heterodimer” value at cJun [2] was 64.1 ± 1.5 °C. For the same molecule, the ΔH at cJun [3] was -45.399 ± 1.93 kcal/mol. Further, the “Stoichiometry, n” value on cJun [3] (peptide 25-200 μM injected into cJun 2.5-20 μM) came to 0.91 ± 0.04.

B1: HW4 (peptide)
peptide: Ac-EAEELVVEEDVLEEEIEQLEERNYALRKEIEDLQKQLEKL-NH2
notes: truncation NΔ20 CΔ3 of HW1; source: synthetic peptide (Fmoc SPPS, RP-HPLC purified)
Turning to B1, in data set [4], the Kd was determined as 0.0911 µM, the dH is -45.4 kcal/mol and the “stoichiometry N” value was found to be 0.91. Also, the “IC50 CD: peptide added to pre-incubated cJun (20 μM) and TRE DNA (5 μM); blocks cJun/TRE DNA binding” value (“IC50 CD … blocks cJun/TRE DNA binding” for short) in data set [5] was 45.4 µM. In data set [6], the “Tm of the peptide-cJun heterodimer” value is 64.1 °C.

B2: HingeW (HW1) (peptide)
peptide: MASLEQRAEELARENEELEKEAEELVVEEDVLEEEIEQLEERNYALRKEIEDLQKQLEKLGAP
notes: TBS-selected 63-mer (acidic extension plus leucine zipper) with MAS N-cap and GAP C-cap; not shown: 6xHis, C-terminal, kept
With B2, in data set [4], the Kd amounted to 0.00021 µM, the dH is -31 kcal/mol and the “stoichiometry N” value amounted to 0.93. Besides, the “IC50 CD … blocks cJun/TRE DNA binding” value in data set [5] turned out to be 13.4 µM. Besides, the “Tm of the peptide-cJun heterodimer” value in data set [6] is 71.2 °C.

B3: HW8 (peptide)
peptide: Ac-EAEELVVEEDVLEEEIEQLEERNYALRKEIEDLQKQ-NH2
notes: truncation NΔ20 CΔ7 of HW1; source: synthetic peptide (Fmoc SPPS, RP-HPLC purified)
With B3, in data set [4], binding was put at a Kd of 1.1 µM, the dH was -5.99 kcal/mol and the “stoichiometry N” value was found to be 0.95. Moreover, the “IC50 CD … blocks cJun/TRE DNA binding” value in data set [5] was 82.1 µM. Also, the “Tm of the peptide-cJun heterodimer” value in data set [6] worked out at 57.1 °C.

B4: HW29 (peptide)
peptide: Ac-EAEELVVEEDVLEEEIEQLEERNYALRKEIKDLQDQ-NH2
modifications: lactam 31-35
SMILES: CC[C@H](C)[C@H](NC(=O)[C@H](CCC(=O)O)NC(=O)[C@H](CCCCN)NC(=O)[C@H](CCCNC(=N)N)NC(=O)[C@H](CC(C)C)NC(=O)[C@H](C)NC(=O)[C@H](Cc1ccc(O)cc1)NC(=O)[C@H](CC(N)=O)NC(=O)[C@H](CCCNC(=N)N)NC(=O)[C@H](CCC(=O)O)NC(=O)[C@H](CCC(=O)O)NC(=O)[C@H](CC(C)C)NC(=O)[C@H](CCC(N)=O)NC(=O)[C@H](CCC(=O)O)NC(=O)[C@@H](NC(=O)[C@H](CCC(=O)O)NC(=O)[C@H](CCC(=O)O)NC(=O)[C@H](CCC(=O)O)NC(=O)[C@H](CC(C)C)NC(=O)[C@@H](NC(=O)[C@H](CC(=O)O)NC(=O)[C@H](CCC(=O)O)NC(=O)[C@H](CCC(=O)O)NC(=O)[C@@H](NC(=O)[C@@H](NC(=O)[C@H](CC(C)C)NC(=O)[C@H](CCC(=O)O)NC(=O)[C@H](CCC(=O)O)NC(=O)[C@H](C)NC(=O)[C@H](CCC(=O)O)NC(C)=O)C(C)C)C(C)C)C(C)C)[C@@H](C)CC)C(=O)N[C@H]1CCCCNC(=O)C[C@@H](C(=O)N[C@@H](CCC(N)=O)C(N)=O)NC(=O)[C@H](CCC(N)=O)NC(=O)[C@H](CC(C)C)NC(=O)[C@H](CC(=O)O)NC1=O
notes: cyclized form of the pair HW28/HW29; NΔ20 CΔ7; source: synthetic peptide (Fmoc SPPS, on-resin lactamization, RP-HPLC purified)
On to B4, for which, in data set [4], the Kd amounted to 0.0866 µM, the dH is -23.6 kcal/mol and the “stoichiometry N” value worked out at 0.97. The “IC50 CD … blocks cJun/TRE DNA binding” value in data set [5] came to 52.7 µM. For the same molecule, in data set [6], the “Tm of the peptide-cJun heterodimer” value was found to be 65 °C.

B5: HW30 (peptide)
peptide: Ac-EAEELVVEEKVLEDEIEQLEERNYALRKEIKDLQDQ-NH2
modifications: lactam 10-14, 31-35
SMILES: CC[C@H](C)[C@H](NC(=O)[C@H](CCC(=O)O)NC(=O)[C@H](CCCCN)NC(=O)[C@H](CCCNC(=N)N)NC(=O)[C@H](CC(C)C)NC(=O)[C@H](C)NC(=O)[C@H](Cc1ccc(O)cc1)NC(=O)[C@H](CC(N)=O)NC(=O)[C@H](CCCNC(=N)N)NC(=O)[C@H](CCC(=O)O)NC(=O)[C@H](CCC(=O)O)NC(=O)[C@H](CC(C)C)NC(=O)[C@H](CCC(N)=O)NC(=O)[C@H](CCC(=O)O)NC(=O)[C@@H](NC(=O)[C@H](CCC(=O)O)NC(=O)[C@@H]1CC(=O)NCCCC[C@H](NC(=O)[C@H](CCC(=O)O)NC(=O)[C@H](CCC(=O)O)NC(=O)[C@@H](NC(=O)[C@@H](NC(=O)[C@H](CC(C)C)NC(=O)[C@H](CCC(=O)O)NC(=O)[C@H](CCC(=O)O)NC(=O)[C@H](C)NC(=O)[C@H](CCC(=O)O)NC(C)=O)C(C)C)C(C)C)C(=O)N[C@@H](C(C)C)C(=O)N[C@@H](CC(C)C)C(=O)N[C@@H](CCC(=O)O)C(=O)N1)[C@@H](C)CC)C(=O)N[C@H]1CCCCNC(=O)C[C@@H](C(=O)N[C@@H](CCC(N)=O)C(N)=O)NC(=O)[C@H](CCC(N)=O)NC(=O)[C@H](CC(C)C)NC(=O)[C@H](CC(=O)O)NC1=O
notes: double lactamized peptide; NΔ20 CΔ7; also called double lactam peptide HW30; source: synthetic peptide (Fmoc SPPS, on-resin lactamization, RP-HPLC purified)
Take B5: in data set [4], the Kd was determined as 0.00969 µM, the dH was -30.5 kcal/mol and the “stoichiometry N” value amounted to 1.05. In addition, in data set [5], the “IC50 CD … blocks cJun/TRE DNA binding” value was 44.9 µM. The “Tm of the peptide-cJun heterodimer” value in data set [6] turned out to be 63.2 °C.

B6: HW23 (peptide)
peptide: Ac-EAEELVVEEKVLEDEIEQLEERNYALRKEIEDLQKQ-NH2
modifications: lactam 10-14
SMILES: CC[C@H](C)[C@H](NC(=O)[C@H](CCC(=O)O)NC(=O)[C@H](CCCCN)NC(=O)[C@H](CCCNC(=N)N)NC(=O)[C@H](CC(C)C)NC(=O)[C@H](C)NC(=O)[C@H](Cc1ccc(O)cc1)NC(=O)[C@H](CC(N)=O)NC(=O)[C@H](CCCNC(=N)N)NC(=O)[C@H](CCC(=O)O)NC(=O)[C@H](CCC(=O)O)NC(=O)[C@H](CC(C)C)NC(=O)[C@H](CCC(N)=O)NC(=O)[C@H](CCC(=O)O)NC(=O)[C@@H](NC(=O)[C@H](CCC(=O)O)NC(=O)[C@@H]1CC(=O)NCCCC[C@H](NC(=O)[C@H](CCC(=O)O)NC(=O)[C@H](CCC(=O)O)NC(=O)[C@@H](NC(=O)[C@@H](NC(=O)[C@H](CC(C)C)NC(=O)[C@H](CCC(=O)O)NC(=O)[C@H](CCC(=O)O)NC(=O)[C@H](C)NC(=O)[C@H](CCC(=O)O)NC(C)=O)C(C)C)C(C)C)C(=O)N[C@@H](C(C)C)C(=O)N[C@@H](CC(C)C)C(=O)N[C@@H](CCC(=O)O)C(=O)N1)[C@@H](C)CC)C(=O)N[C@@H](CCC(=O)O)C(=O)N[C@@H](CC(=O)O)C(=O)N[C@@H](CC(C)C)C(=O)N[C@@H](CCC(N)=O)C(=O)N[C@@H](CCCCN)C(=O)N[C@@H](CCC(N)=O)C(N)=O
notes: cyclized form of the pair HW22/HW23; NΔ20 CΔ7; source: synthetic peptide (Fmoc SPPS, on-resin lactamization, RP-HPLC purified)
With B6, in data set [4], the Kd worked out at 0.0696 µM, the dH is -14.1 kcal/mol and the “stoichiometry N” value was determined as 1.2. Also, the “IC50 CD … blocks cJun/TRE DNA binding” value in data set [5] amounted to 74.9 µM. For the same molecule, the “Tm of the peptide-cJun heterodimer” value in data set [6] was found to be 64 °C.
